This passage reports abundance fitness results from the Human Domainome abundance scans (Beltran et al. 2025).

± gives the uncertainty stated by the source.

B1: Steroid hormone receptor ERR2, residues 100 to 176; numbered along this chain, O95718 (parent)
chain: KRLCLVCGDIASGYHYGVASCEACKAFFKRTIQGNIEYSCPATNECEITKRRRKSCQACRFMKCLKVGMLKEGVRLD

The data set covers variants of B1. The experiment in a line: abundance fitness (aPCA) (normalised: wild type 0, dead -1); higher = more abundant; growth selection in yeast, the domain comes from the species named. Particulars: Homo sapiens.
With KRLCLECGDIASGYHYGVASCEACKAFFKRTIQGNIEYSCPATNECEITKRRRKSCQACRFMKCLKVGMLKEGVRLD [V6E], the abundance fitness is -0.612 ± 0.091.
In the case of KRLCLVCGDIASGYHYGGASCEACKAFFKRTIQGNIEYSCPATNECEITKRRRKSCQACRFMKCLKVGMLKEGVRLD [V18G], the abundance fitness is -0.259 ± 0.066.
The figure for KRLCLVCGDIASGYHYGVASCEACKAFFKRTIQGNIEYSCPATNECEITKRRRKSCQAMRFMKCLKVGMLKEGVRLD [C59M] is -0.631 ± 0.1.
For KRLCLVCGDIASGYHYGVASCEACKAFFKRTIQGNIEYSCPATNECEITKRRRKSCQAARFMKCLKVGMLKEGVRLD [C59A], the abundance fitness is -0.686 ± 0.097.
On to KRCCLVCGDIASGYHYGVASCEACKAFFKRTIQGNIEYSCPATNECEITKRRRKSCQACRFMKCLKVGMLKEGVRLD [L3C], for which the abundance fitness is -0.373 ± 0.11.
For KRSCLVCGDIASGYHYGVASCEACKAFFKRTIQGNIEYSCPATNECEITKRRRKSCQACRFMKCLKVGMLKEGVRLD [L3S], the abundance fitness was -0.062 ± 0.053.
Turning to KRECLVCGDIASGYHYGVASCEACKAFFKRTIQGNIEYSCPATNECEITKRRRKSCQACRFMKCLKVGMLKEGVRLD [L3E], the abundance fitness was -0.048 ± 0.052.
As for KRLCLVCGDIASGYHYGVASCEACKAFFKRTIQGNIEYSCPATNECEITKRRRKSCQACRFMKCLKVGMVKEGVRLD [L70V], the abundance fitness turned out to be 0.107 ± 0.046.
Under KRLCLVCGDIASGYHYGVASCEACKAFEKRTIQGNIEYSCPATNECEITKRRRKSCQACRFMKCLKVGMLKEGVRLD [F28E] stands -0.638 ± 0.084; under KRLCLVCGDIASGYHYGVASCEACKAFFKRTIQGIIEYSCPATNECEITKRRRKSCQACRFMKCLKVGMLKEGVRLD [N35I], -0.593 ± 0.17; under KRLCLVKGDIASGYHYGVASCEACKAFFKRTIQGNIEYSCPATNECEITKRRRKSCQACRFMKCLKVGMLKEGVRLD [C7K], -1.19 ± 0.23.
As for KRLCLVNGDIASGYHYGVASCEACKAFFKRTIQGNIEYSCPATNECEITKRRRKSCQACRFMKCLKVGMLKEGVRLD [C7N], the abundance fitness was -0.635 ± 0.19.
Consider KRLCLVCGDIASGYHYGVASCEACKAFFKRTVQGNIEYSCPATNECEITKRRRKSCQACRFMKCLKVGMLKEGVRLD [I32V], for which the abundance fitness turned out to be 0.055 ± 0.044.
The figure for KRLCLVCGDIASGYHYGVASCEACKAFFKRTCQGNIEYSCPATNECEITKRRRKSCQACRFMKCLKVGMLKEGVRLD [I32C] is -0.803 ± 0.26; for KRLCLVCGDIASGYHYGVASCEACKAFFKRTNQGNIEYSCPATNECEITKRRRKSCQACRFMKCLKVGMLKEGVRLD [I32N] it is -0.568 ± 0.19; for KRLCLVCGDIASGYHYGVASCEACKAFFKRTIQGNIEYSCPATNECEITKRRRKSCQACRFMKCLHVGMLKEGVRLD [K66H] it is -0.168 ± 0.13.
The figure for KRLCLVCGDIASGYHYGVASCEACKAFFKRTIQGNIEYSCPATNECEITKRRRKSCQACRFMKCLCVGMLKEGVRLD [K66C] is -0.354 ± 0.1.
For KRLCLVCGDIASGYHYGVASCEACKAFFKRTIQGNIEYSCPATNECEITKRRRKSCQACRFMKCLWVGMLKEGVRLD [K66W], the abundance fitness is -0.559 ± 0.1.
In the case of KRLCLVCGDIASGYHYGVASKEACKAFFKRTIQGNIEYSCPATNECEITKRRRKSCQACRFMKCLKVGMLKEGVRLD [C21K], the abundance fitness was -0.679 ± 0.11.
With KRLCLVCGDIASGYHYGVASDEACKAFFKRTIQGNIEYSCPATNECEITKRRRKSCQACRFMKCLKVGMLKEGVRLD [C21D], the abundance fitness is -0.518 ± 0.3.
For KRLCLVCGVIASGYHYGVASCEACKAFFKRTIQGNIEYSCPATNECEITKRRRKSCQACRFMKCLKVGMLKEGVRLD [D9V], the abundance fitness is -0.43 ± 0.063.
In the case of KRLCLVCGWIASGYHYGVASCEACKAFFKRTIQGNIEYSCPATNECEITKRRRKSCQACRFMKCLKVGMLKEGVRLD [D9W], the abundance fitness was -0.301 ± 0.072.
KRLCLVCGDIASGYHYGVASCEACKAFFKRTIQGNIEYSCPATNECEITKRRRKSCQACRFMKCLKVGYLKEGVRLD [M69Y]: the abundance fitness was -0.259 ± 0.097.
Take KRLCLVCGDIASGYHYGVASCEACKAFFKRTIQGNIEYSCPATNECEITKRRRKSCQACRFMKCLKVGHLKEGVRLD [M69H]: the abundance fitness was -1.06 ± 0.37.
KRLCLVCGDIASGYHYGVASCEACKAFFKRTIQGNIEYSCPATNECEITKRRRKSCQACRFMKCLKVGQLKEGVRLD [M69Q]: the abundance fitness is -0.752 ± 0.14.
KRLCLVCGDIASGYHYGVASCEACKAFFKRTIQGNIEYSCPATNEEEITKRRRKSCQACRFMKCLKVGMLKEGVRLD [C46E]: the abundance fitness was -0.623 ± 0.11.
Turning to KRLCLVCGDIASGYHYGVASCNACKAFFKRTIQGNIEYSCPATNECEITKRRRKSCQACRFMKCLKVGMLKEGVRLD [E22N], the abundance fitness was 0.322 ± 0.068.
For the variant KRLCLVCGDIASGYHYGVASCEACKAFFKRTIQGNIEYSCPATNECEITKRRRKSCQACRFMKCLKVLMLKEGVRLD [G68L], the abundance fitness is -0.749 ± 0.11.
The figure for KRLCLVCGDIASHYHYGVASCEACKAFFKRTIQGNIEYSCPATNECEITKRRRKSCQACRFMKCLKVGMLKEGVRLD [G13H] is -0.759 ± 0.46; for KRLCLVCGDIASFYHYGVASCEACKAFFKRTIQGNIEYSCPATNECEITKRRRKSCQACRFMKCLKVGMLKEGVRLD [G13F] it is -0.27 ± 0.16; for KRLCLVCGDIASGYHYGVASCEACKAFFKRTIQGNIEYSVPATNECEITKRRRKSCQACRFMKCLKVGMLKEGVRLD [C40V] it is -0.688 ± 0.082.
As for KRLCLVCGDIASGYHYGVASCEACKAFFKRTIQGNIEYSCPATNECEITKRRRKSCQACRFMKCLKVGMLKEGVRLW [D77W], the abundance fitness was -0.287 ± 0.12.
On to KRLCLVCGDIASGYHYGVASCEACKAFFKRTIQGNIEYSCPATNECEITKRRRKSCQACRFMKCLKVGMLKEGVRLE [D77E], for which the abundance fitness is -0.096 ± 0.082.
For KRLCLVCGDIASGYHYGVASCEACKAFFKRTIQGNIEYSCPATNECEITKRRRKSCQACRFMKCLKVGMLKEGVRLA [D77A], the abundance fitness is -0.131 ± 0.073.
As for KRLCLVCGDIASGYHYGVASCEACKAFFKRTIQGNIEYSCPATNECEITKRRRKSCQACRFMKCLKVGMLKEGVELD [R75E], the abundance fitness came to 0.076 ± 0.051.
